What was measured:
[1] = molecular target: ^HAβ3 (rat GABAA receptor β3 subunit with a triple HA tag) (rat) (UniProt P63079)
[2] = molecular target: ^HAβ3 (rat GABAA receptor β3 subunit with a triple HA tag) (rat) (UniProt P63079); remark: listed apart in the source
[3] = molecular target: ^HAβ3/θIC chimera (EC and TM domains from β3, intracellular domain from θ) (rat)
[4] = molecular target: ^HAβ3 (rat GABAA receptor β3 subunit with a triple HA tag) (rat) (UniProt P63079); remark: listed apart in the source
[5] = molecular target: ^HAβ3/θIC chimera (EC and TM domains from β3, intracellular domain from θ) (rat); remark: listed apart in the source
[6] = molecular target: ^HAβ3/θIC chimera (EC and TM domains from β3, intracellular domain from θ) (rat); remark: listed apart in the source

## ^HAβ3 (rat GABAA receptor β3 subunit with a triple HA tag) (from UniProt P63079 26-473)
[1]
  peak whole-cell current evoked by 3 mM histamine, HEK293 cells transfected with ^HAβ3 alone (patch clamp, -80 mV): 404 pA

## ^zβ3Q64E (mutant β3 subunit with higher affinity for histamine) (from UniProt P63079 26-473) (receptor)
[2]
  share of the low-affinity component in the bimodal histamine concentration-response curve (10 μM to 10 mM), whole-cell patch clamp, HEK293 cells co-transfected with ^zβ3Q64E and ^HAβ3 (% of the total curve fit): 85

## rat GABAA receptor α3 subunit (untagged) (from UniProt P20236 29-493)
[3]
  anti-HA surface immunofluorescence intensity of non-permeabilized HEK293 cells co-transfected with α3 and ^HAβ3/θIC (the chimera alone is rarely on the surface): 14 AU
[4]
  histamine (3 mM) potentiation of the response to 1 mM GABA, whole-cell patch clamp, HEK293 cells co-transfected with α3 and ^HAβ3: 2.93 fold
[5]
  peak whole-cell current evoked by 1 mM GABA, HEK293 cells co-transfected with α3 and ^HAβ3/θIC (patch clamp): 803 pA

## rat GABAA receptor β3 subunit (untagged) (from UniProt P63079 26-473)
[6]
  anti-HA surface immunofluorescence intensity of non-permeabilized HEK293 cells co-transfected with untagged β3 and ^HAβ3/θIC (the chimera alone is rarely on the surface): 9.9 AU

From publication PMC6802930
